# From the supplement of paper PMC10567573
# B1: MGC27345 (parent)
# chain: KYMPHLCQDSSGEVSCQCQLHPPR
# B2: TSN (parent)
# chain: AFVVYLETETLVTREAVTEILGIE
# Variants of: B1
# Experiment: protein stability index of a GFP-peptide fusion (GPS, HEK-293T) (PSI 1-6); higher = more stable
# Conditions: c terminus: a fixed tail appended
# 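Note: lentivirally expressed fusions sorted by FACS into six bins by GFP to DsRed ratio, PSI derived from sequencing read proportions per bin multiplied by bin number.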
row,Variant,protein stability index
1,C7I,1.79
2,C7W,1.75
3,C7Q,2.1
4,C7A,1.47
5,C7L,1.85
6,C7N,1.27
7,C7K,1.9
8,C7R,3.06
9,C7S,1.47
10,C7P,1.77
11,C7M,2.11
12,C7G,3.13
13,C7Y,1.63
14,C7D,2.11
15,C7T,1.53
16,C7E,1.77
17,C7H,1.85
18,C7F,2.21
19,S15I,1.63
20,S15K,2.8
21,S15P,2.67
22,S15G,2.14
23,S15H,1.64
24,S15W,1.02
25,S15L,1.72

row,Variant,protein stability index
1,S15D,3.99
2,S15T,1.41
3,S15R,1.63
4,S15F,1.67
5,S15V,2.48
6,S15Y,2.22
7,S15C,2.28
8,S15N,2.62
9,S15E,3.32
10,S15Q,1.96
11,S11V,1.45
12,S11A,2.53
13,S11K,2.28
14,S11P,1.72
15,S11Y,1.52
16,S11F,1.58
17,S11M,2.12
18,S11E,2.42
19,S11Q,1.63
20,S11G,3.17
21,S11W,1.28
22,S11N,2.55
23,S11D,2.13
24,S11R,1.66
25,S11C,2.5

row,Variant,protein stability index
1,S11I,1.71
2,S11L,2.04
3,S11T,2.1
4,S11H,2.16
5,K1T,1.9
6,K1S,2.65
7,K1Q,2
8,K1A,1.82
9,K1G,2.25
10,K1H,2.13
11,K1R,2.24
12,K1M,3.73
13,K1Y,1.92
14,K1C,3.03
15,K1I,1.98
16,K1L,2.48
17,K1D,2.56
18,K1N,1.73
19,K1F,1.6
20,K1V,2.43
21,K1E,2.06
22,K1P,2.16
23,S10F,2.65
24,S10P,2.05
25,S10N,2.08

row,Variant,protein stability index
1,S10H,2.91
2,S10Y,4.19
3,S10W,1.6
4,S10V,1.56
5,S10A,2.06
6,S10E,2.57
7,S10T,1.97
8,S10L,1.57
9,S10R,1
10,S10Q,2.26
11,S10D,2.94
12,S10K,2.02
13,S10C,2.73
14,S10I,2.63
15,S10M,2.39
16,S10G,2.08
17,C16E,4.02
18,C16Y,3.13
19,C16V,2.85
20,C16L,2.94
21,C16A,3.38
22,C16T,2.96
23,C16H,3.05
24,C16W,2.38
25,C16M,2.9

row,Variant,protein stability index
1,C16I,1.93
2,C16D,3.88
3,C16G,4.1
4,C16F,2.16
5,C16Q,3.99
6,C16S,2.03
7,C16R,3.1
8,C16P,3.31
9,C16N,3.1
10,C16K,3.58
11,P4R,1.9
12,P4Q,1.99
13,P4S,1.71
14,P4E,1.79
15,P4M,2.54
16,P4K,1.58
17,P4N,1.78
18,P4V,2.81
19,P4F,1.75
20,P4H,1.69
21,P4I,1.49
22,P4L,1.7
23,P4C,3.23
24,P4A,2.26
25,P4W,1.67

row,Variant,protein stability index
1,P4G,1.62
2,P4Y,2.15
3,P4T,1.98
4,P4D,2.18
5,H5C,2.92
6,H5W,3.69
7,H5Y,1.98
8,H5S,1.89
9,H5F,1.34
10,H5T,2.21
11,H5P,2.27
12,H5R,2.57
13,H5D,1.66
14,H5M,2.15
15,H5G,1.45
16,H5V,2.22
17,H5E,2.3
18,H5I,1.49
19,H5N,1.64
20,H5A,1.8
21,H5Q,2.6
22,V14A,3.06
23,V14N,2.46
24,V14P,2.45
25,V14F,1.94

row,Variant,protein stability index
1,V14Y,2.08
2,V14K,2.64
3,V14G,3.14
4,V14C,2.94
5,V14Q,2.67
6,V14H,2.48
7,V14I,2.48
8,V14M,2.23
9,V14R,2.24
10,V14T,2.87
11,V14L,1.97
12,V14D,2.25
13,V14S,2.88
14,V14E,3.31
15,V14W,2.42
16,D9S,1.82
17,D9M,2.15
18,D9G,2.56
19,D9E,3.09
20,D9K,2.43
21,D9R,1.89
22,D9A,2.73
23,D9N,1.98
24,D9P,1.42
25,D9C,2.97

row,Variant,protein stability index
1,D9H,2.38
2,D9I,1.51
3,D9T,2.14
4,D9L,2.18
5,D9W,1.52
6,D9F,2.47
7,D9Y,1.67
8,E13N,1.75
9,E13K,2.21
10,E13M,1.89
11,E13R,2.44
12,E13S,2.26
13,E13C,2.14
14,E13W,1.03
15,E13P,2.31
16,E13Q,1.74
17,E13A,2.3
18,E13H,2.05
19,E13V,1.78
20,E13D,2.57
21,E13I,1.99
22,E13Y,1.54
23,E13L,2.07
24,E13T,2.22
25,E13F,1.71

row,Variant,protein stability index
1,Y2P,1.79
2,Y2M,2.52
3,Y2T,2.3
4,Y2C,2.44
5,Y2F,1.86
6,Y2I,3.1
7,Y2S,2.33
8,Y2D,2.4
9,Y2Q,1.78
10,Y2V,2.23
11,Y2G,2.87
12,Y2E,1.66
13,Y2H,2.51
14,Y2R,2.16
15,Y2W,2.64
16,Y2N,3.13
17,Y2A,1.97
18,M3S,2.27
19,M3E,2.25
20,M3V,2.32
21,M3H,2.28
22,M3D,2.34
23,M3I,2.01
24,M3Y,2.22
25,M3R,2.46

row,Variant,protein stability index
1,M3T,1.96
2,M3C,2.94
3,M3A,2.24
4,M3Q,1.05
5,M3P,2.84
6,M3L,2.67
7,M3F,1.99
8,M3N,2.55
9,M3G,2.1
10,M3K,1.96
11,M3W,1.99
12,L6W,1.53
13,L6H,2.1
14,L6Y,1.96
15,L6K,2.14
16,L6S,2.98
17,L6V,2.65
18,L6E,2.71
19,L6T,2.34
20,L6F,1.59
21,L6I,2.23
22,L6D,2.64
23,L6M,1.79
24,L6P,1.57
25,L6C,2.39

row,Variant,protein stability index
1,L6A,1.73
2,L6N,1.79
3,L6R,2.05
4,L6G,2.66
5,L6Q,2.47
6,Q17A,1.66
7,Q17C,2.32
8,Q8D,2.6
9,Q8E,1.97
10,Q8V,2.73
11,Q8P,2.15
12,Q8F,2.38
13,Q8C,2.53
14,Q8Y,1.7
15,Q8N,2.54
16,Q8R,2.83
17,Q8I,2.38
18,Q8L,1.77
19,Q8T,3.04
20,Q8M,2.83
21,Q8H,2.03
22,Q8W,2.65
23,Q8A,2.65
24,Q8G,2.42
25,G12F,1.34

row,Variant,protein stability index
1,G12C,2.38
2,G12Q,2.8
3,G12L,2.08
4,G12A,2
5,G12Y,1.53
6,G12R,1.69
7,G12T,1.87
8,G12E,2.1
9,G12P,1.96
10,G12H,2.69
11,G12K,1.59
12,G12M,1.88
13,G12I,1.47
14,G12N,1.67
15,G12D,2.52

# Variants of: B2
# Experiment: as above
# Conditions: c terminus: a fixed tail appended
row,Variant,protein stability index
1,T13C,2.48
2,Y5I,4.04
3,T18N,4.21
4,T18P,2.79
5,I23D,1.42
6,I23A,1.8
7,A16E,2.77
8,A16Y,2.47
9,A16T,2.66
10,A1G,3.71
11,A1C,2.64
12,L6K,2.03
13,L6G,1.77
14,L6N,2.69
15,L21V,3.75
16,E7N,3.66
17,V3D,2.37
18,F2R,1.72
19,F2I,2.72
20,F2H,1.48
21,F2N,2.45
22,I20A,2.66

row,Variant,protein stability index
1,I20P,1.67
2,I20H,2.68
3,G22H,3.32
4,T10Y,2.36
5,T10F,3.32
6,V4R,1.45
7,V4N,2.09
8,V4W,2.92
9,V4K,1.56
10,V4T,1.13
11,E19C,3.83
12,E19P,2.44
13,E19L,3.65
14,V12H,2.21
15,V12G,2.73
16,E15D,3.69
17,E24Q,3.13
18,E24L,3.3
19,L11V,2.74
20,L11P,1.97
21,L11G,2.58
22,L11T,1.64
